Laboratory results: patent US20230057665A1 (Eli Lilly, published 2023)

Tests used:
Human IL-1β [1] = target: T1, Human IL-1β (human, UniProt P01584 117-269); assay: cell-based or functional assay
Cyno IL-1β = Cyno IL-1β (cyno, UniProt P79182 117-268); assay: cell-based or functional assay
Human IL-1β [2] = target: T1, Human IL-1β; assay: MSD-SET (solution equilibrium titration, electrochemiluminescence), 37° C., 72 h equilibrium
Experimental: MSD (Meso Scale Discovery) electrochemiluminescence assay is utilized to measure the affinity of Antibody I, Antibody II, and Canakinumab against human IL-1β. First, the equilibrium mixture of antibodies and human IL-1β is set up; in the mixture the antibody, concentrations are kept constant at 1 pM, 10 pM, and 100 pM whereas the ligand is titrated in the concentration ranging from 0.9 nM to 0.00004 nM (2.5 times dilution between concentrations) The equilibrium mixture is set up in sealed non-binding 96-well plate at 37° C. for 72 hours.
MSD Gold Streptavidin plates are used to detect the free antibodies in the equilibrium mixture. The MSD plates are first blocked with blocking buffer (PBS+1% BSA) for 1 hour on a shaker set at 800 rpm and then washed 3 times with washing buffer PBST (PBS ±0.05% Tween 20). The plates are coated with biotinylated human IL-1p followed by 3× washing with PBST. The equilibrium mixtures are added to the coated plate, incubated at room temperature with shaking for 2.5 mins and immediately washed 3× with PBST. The goat anti-human Sulfo-TAG antibody is added to the plate and incubated at room temperature for 1 hour with shaking. After three more washes, MSD Read Buffer at 1:2 concentration diluted in MilliQ water is added to the wells. immediately afterwards, the plates are read using an MSD Sector Imager 516000 instrument.

- Human IL-1β Inhibition IC50 (HEK-Blue IL-1β reporter cells, 4 pM IL-1β) (Human IL-1β [1]): 29.2 pM
- Cyno IL-1β Inhibition IC50 (HEK-Blue IL-1β reporter cells, 4 pM IL-1β) (Cyno IL-1β): > 10000 pM
- Kd (Human IL-1β [2]): 0.0131 nM
B1: Canakinumab (antibody, human IgG4 S228P, kappa, F234A L235A, V domains shown)
VH: QVQLVESGGGVVQPGRSLRLSCAASGFTFSVYGMNWVRQAPGKGLEWVAIIWYDGDNQYYADSVKGRFTISRDNSKNTLYLQMNGLRAEDTAVYYCARDLRTGPFDYWGQGTLVTVSS
VL: EIVLTQSPDFQSVTPKEKVTITCRASQSIGSSLHWYQQKPDQSPKLLIKYASQSFSGVPSRFSGSGSGTDFTLTINSLEAEDAAAYYCHQSSSLPFTFGPGTKVDIKR
